Experimental data published in patent US20170002075A1 (AbbVie / Abbott, published 2017).

What was measured:
[1] = biological target: T1, E. coli RAGE Construct #1, OmpA-[RAGE (23-340)]-6His (human, UniProt Q15109 23-340); assay: ELISA, fragment coated at 1 µg/ml
T1 construct: Not glycosylated (E. coli); also called RAGE protein #1; E. coli-expressed sRAGE
Experimental: Antigens (purified construct #1-7 proteins) were diluted into Coating Buffer [100 mM NaHCO₃, pH 8.2] to 1 μg/ml, and 100 μl of the resulting solution was then aliquoted into a 96-well Nunc Immuno Plate (Maxi-Sorb Surface, flat bottom, catalog #439454). The plate was sealed with sealing film and incubated at 4° C. overnight. The next day, the plate wells were each washed 3 times with 150 μL PBST buffer [Sigma PBS+0.05% Tween 20]. Then 300 ul of blocking solution (3% NFDM in PBST) was added to each well. The plate was incubated for 2 hours at room temperature and shaking at 100 rpm. After the incubation step, each well was again washed three times with 150 uL PBST. […] The plate was then sealed with sealing film and incubated for 2 hours at room temperature and shaking at 100 rpm. Next the antibody solution was drained out of the wells, and each well then washed three times with 200 ul PBST. To each well then 200 ul of a 1:5000 dilution (in PBST/1% NFDM) of conjugated secondary antibody [Donkey anti-mouse HRPO conjugate, Jackson Immuno Research, Catalog #715-035-150] was added. The plate was covered and allowed to incubate for 1 hour at room temperature while shaking at 100 rpm. […] Finally, 50 μL of 2M H₂SO₄ was added to each well to stop the reaction and the A₅₄₀ₙₘ of each well was measured using a microtiter plate reader.

RAGE-derived peptide 10 = biological target: T2, RAGE-derived peptide 10 (human); assay: dot blot, non-denatured peptide on nitrocellulose
T2 construct: Synthetic peptide with a free carboxyl terminus
T2 peptide: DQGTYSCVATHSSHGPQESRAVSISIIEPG
Excerpt: (§1) Dot blots were used to evaluate the binding of antibodies to peptides or fragments of RAGE in a non-denatured form. […] Peptides were ordered and synthesized by Biotrend according to standard methods (solid phases peptide synthesis on AMS 222 synthesizer using Fmoc/tBu-chemistry) containing a free carboxyl terminus. Peptides were HPLC-purified and analysis of every peptide for purity was done using RP-HPLC. […] The identities of peptides were verified by mass spectrometry.
(§2) Dots consisting of different amount of protein/peptide (30 ng, 10 ng, 3 ng, 1 ng, 0.3 ng, 0.1 ng, 0.03 ng, and 0.01 ng) in a volume of 1 μl in 1×PBS were spotted onto a Hybond-ECL Nitrocellulose Membrane (Amersham, RPN68D) in duplicates. Membranes were dried and unspecific binding was blocked by shaking the membranes for 1 hour at room temperature with Western Blocking reagent (Roche, no. 1921673). Blocking reagent was discarded and the membranes were incubated with antibodies in a concentration of 7.14 nM (shaking, 1 hour at room temperature). […] Blots were washed 4 times (each time 5 minute incubation with shaking at room temperature) with 1×PBS. Blots were then incubated with goat anti mouse IgG AP secondary antibody (Sigma no. A-7434) diluted 1:2000 in Western Blocking Reagent (Roche, no. 192173). Incubation for 1 hour was as before (shaking, room temperature). The filters were washed 4 times (5 minutes each) in 1×PBS. Development of signals was according to manufacturers instructions with NBT/BCIP substrate solution (Roche, no. 1697471). Color development was stopped after 10 minutes with bi-distilled water.

RAGE-derived peptide 3 = biological target: T3, RAGE-derived peptide 3 (human); assay: dot blot, non-denatured peptide on nitrocellulose
T3 construct: Synthetic peptide with a free carboxyl terminus
T3 peptide: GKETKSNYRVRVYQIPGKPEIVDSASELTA
Excerpt: as §1, §2

RAGE-derived peptide 2 = biological target: T4, RAGE-derived peptide 2 (human); assay: dot blot, non-denatured peptide on nitrocellulose
T4 construct: Synthetic peptide with a free carboxyl terminus
T4 peptide: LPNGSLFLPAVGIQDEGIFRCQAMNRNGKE
Excerpt: as §1, §2

RAGE-derived peptide 6 = biological target: T5, RAGE-derived peptide 6 (human); assay: dot blot, non-denatured peptide on nitrocellulose
T5 construct: Synthetic peptide with a free carboxyl terminus
T5 peptide: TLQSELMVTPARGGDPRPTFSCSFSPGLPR
Excerpt: as §1, §2

RAGE-derived peptide 5 = biological target: T6, RAGE-derived peptide 5 (human); assay: dot blot, non-denatured peptide on nitrocellulose
T6 construct: Synthetic peptide with a free carboxyl terminus
T6 peptide: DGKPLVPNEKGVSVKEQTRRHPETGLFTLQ
Excerpt: as §1, §2

[2] = biological target: T7, RAGE-derived peptide NtermR31 (human); assay: dot blot, non-denatured peptide on nitrocellulose
T7 construct: Synthetic peptide with a free carboxyl terminus
T7 peptide: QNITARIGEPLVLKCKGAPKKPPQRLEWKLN
Excerpt: as §1, §2

RAGE-derived peptide 7 = biological target: T8, RAGE-derived peptide 7 (human); assay: dot blot, non-denatured peptide on nitrocellulose
T8 construct: Synthetic peptide with a free carboxyl terminus
T8 peptide: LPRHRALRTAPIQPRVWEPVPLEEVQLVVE
Excerpt: as §1, §2

RAGE-derived peptide 8 = biological target: T9, RAGE-derived peptide 8 (human); assay: dot blot, non-denatured peptide on nitrocellulose
T9 construct: Synthetic peptide with a free carboxyl terminus
T9 peptide: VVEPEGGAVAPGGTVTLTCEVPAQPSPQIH
Excerpt: as §1, §2

RAGE-derived peptide 1 = biological target: T10, RAGE-derived peptide 1 (human); assay: dot blot, non-denatured peptide on nitrocellulose
T10 construct: Synthetic peptide with a free carboxyl terminus
T10 peptide: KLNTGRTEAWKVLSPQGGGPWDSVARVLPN
Excerpt: as §1, §2

RAGE-derived peptide 4 = biological target: T11, RAGE-derived peptide 4 (human); assay: dot blot, non-denatured peptide on nitrocellulose
T11 construct: Synthetic peptide with a free carboxyl terminus
T11 peptide: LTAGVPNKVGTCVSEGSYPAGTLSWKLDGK
Excerpt: as §1, §2

RAGE-derived peptide 9 = biological target: T12, RAGE-derived peptide 9 (human); assay: dot blot, non-denatured peptide on nitrocellulose
T12 construct: Synthetic peptide with a free carboxyl terminus
T12 peptide: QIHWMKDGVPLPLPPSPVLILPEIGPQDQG
Excerpt: as §1, §2

[3] = biological target: T13, E. coli RAGE Construct #6, 6His-(Thr)-[RAGE (130-336)] (human, UniProt Q15109 130-336); assay: ELISA: RAGE 130-336 (E. coli, D#1478) coated, mAb titrated, anti-mouse HRP conjugate, TMB
T13 construct: Expressed in E. coli with an N-terminal 6His-(Thr) tag, which is part of the entry; also called RAGE protein #6
T13 sequence (Q15109 other isoform, or with tags, fused parts or gaps limits assumed): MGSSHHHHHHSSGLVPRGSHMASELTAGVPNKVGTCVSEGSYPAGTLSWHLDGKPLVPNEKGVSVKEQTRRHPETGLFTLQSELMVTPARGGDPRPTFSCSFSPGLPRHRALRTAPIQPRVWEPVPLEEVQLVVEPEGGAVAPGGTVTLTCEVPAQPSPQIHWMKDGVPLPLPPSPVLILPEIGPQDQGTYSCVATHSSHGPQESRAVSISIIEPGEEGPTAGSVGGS
Experimental: Antigens (purified construct #1-7 proteins) were diluted into Coating Buffer [100 mM NaHCO₃, pH 8.2] to 1 μg/ml, and 100 μl of the resulting solution was then aliquoted into a 96-well Nunc Immuno Plate (Maxi-Sorb Surface, flat bottom, catalog #439454). The plate was sealed with sealing film and incubated at 4° C. overnight. The next day, the plate wells were each washed 3 times with 150 μL PBST buffer [Sigma PBS+0.05% Tween 20]. Then 300 ul of blocking solution (3% NFDM in PBST) was added to each well. The plate was incubated for 2 hours at room temperature and shaking at 100 rpm. After the incubation step, each well was again washed three times with 150 uL PBST. […] The plate was then sealed with sealing film and incubated for 2 hours at room temperature and shaking at 100 rpm. Next the antibody solution was drained out of the wells, and each well then washed three times with 200 ul PBST. To each well then 200 ul of a 1:5000 dilution (in PBST/1% NFDM) of conjugated secondary antibody [Donkey anti-mouse HRPO conjugate, Jackson Immuno Research, Catalog #715-035-150] was added. The plate was covered and allowed to incubate for 1 hour at room temperature while shaking at 100 rpm. Following this incubation, the solution was removed from the wells and each well was washed three times with 200 ul PBST. To each well 100 μL of HRPO substrate [3,3′,5′,5′-Tetramethylbenzidine Liquid Substrate (TMB), Supersensitive for ELISA, Sigma Catalog #T4444] solution was added and the plate incubated at room temperature for 10 minutes. Finally, 50 μL of 2M H₂SO₄ was added to each well to stop the reaction and the A₅₄₀ₙₘ of each well was measured using a microtiter plate reader.

T1 sequence (Q15109 other isoform, or with tags, fused parts or gaps limits assumed): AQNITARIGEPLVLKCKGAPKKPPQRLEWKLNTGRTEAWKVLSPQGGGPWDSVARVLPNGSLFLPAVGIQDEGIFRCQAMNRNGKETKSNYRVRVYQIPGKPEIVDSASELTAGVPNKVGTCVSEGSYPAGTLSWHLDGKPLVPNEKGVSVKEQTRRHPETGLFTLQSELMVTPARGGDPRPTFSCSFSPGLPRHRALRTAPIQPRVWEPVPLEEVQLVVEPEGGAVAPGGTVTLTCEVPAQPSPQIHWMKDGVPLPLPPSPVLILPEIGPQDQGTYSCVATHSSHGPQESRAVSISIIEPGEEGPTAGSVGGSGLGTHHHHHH

B1: anti-human RAGE monoclonal antibody 7F9 (murine, hybridoma-derived) (antibody, V domains shown)
VH: EEKLEESGGGLVQLGGSMKISCVASGFTLSNYWMDWVRQSPEKGLEWIAEIRLKSNYYSTHYAESVKGRFSISRDDSKGSVSLQMDNLTAEDTGIYFCARNAYWYFDVWGTGTTVTVSS
VL: DIVMTQSHKFMSTSVGDRVSATCKASQDVGTSVAWYQQKLGQSPKLLIYWTSTRHTGVPDRFTGSGSGTDFTLTISNVQSEDLADYFCQQYNNYPLTFGDGTKLELKR
notes: also called mAb7F9; MAb 7F9
Does B1 bind [1]?
Result: no binding

Does B1 bind (RAGE-derived peptide 10)?
Result: no binding

Does B1 bind (RAGE-derived peptide 3)?
Result: no binding

Does B1 bind (RAGE-derived peptide 2)?
Result: no binding

Does B1 bind (RAGE-derived peptide 6)?
Result: no binding

Does B1 bind (RAGE-derived peptide 5)?
Result: no binding

Does B1 bind [2]?
Result: no binding

Does B1 bind (RAGE-derived peptide 7)?
Result: no binding

Does B1 bind (RAGE-derived peptide 8)?
Result: no binding

Does B1 bind (RAGE-derived peptide 1)?
Result: no binding

Does B1 bind (RAGE-derived peptide 4)?
Result: no binding

Does B1 bind (RAGE-derived peptide 9)?
Result: no binding

Does B1 bind [3]?
Result: no binding

B2: anti-human RAGE monoclonal antibody 11E6 (murine, hybridoma-derived) (antibody, V domains shown)
VH: QIQLVQSGPELKKPGETVKISCKASGYTFTNFGMNWVKQAPGKGLKWMGYINTNTGESIYSEEFKGRFAFSLETSASTAYLQINNLKNEDTATYFCARSRMVTAYGMDYWGQGTSVTVSS
VL: DIVMTQSQKFMSTSVGDRVSITCKASQNVGTAVAWYQQRPGQSPKLLIFSASNRYTGVPDRFTGSGSGTDFTLTLSNMQPEDLADYFCQQYSSYPLTFGVGTKLELKR
notes: also called mAb11E6; ML37-11E6
Does B2 bind (RAGE-derived peptide 10)?
Result: no binding

Does B2 bind (RAGE-derived peptide 3)?
Result: no binding

Does B2 bind (RAGE-derived peptide 2)?
Result: no binding

Does B2 bind (RAGE-derived peptide 6)?
Result: no binding

Does B2 bind (RAGE-derived peptide 5)?
Result: no binding

Does B2 bind [2]?
Result: no binding

Does B2 bind (RAGE-derived peptide 7)?
Result: no binding

Does B2 bind (RAGE-derived peptide 8)?
Result: no binding

Does B2 bind (RAGE-derived peptide 1)?
Result: no binding

Does B2 bind (RAGE-derived peptide 4)?
Result: no binding

Does B2 bind (RAGE-derived peptide 9)?
Result: no binding

What about the “EC50 (read off the curve)” value [3] of the same binder?
The value was ~600 pM.

B3: anti-human RAGE monoclonal antibody 4E5 (murine, hybridoma-derived) (antibody, V domains shown)
VH: QVQLQQSGAELVRPGTSVKVSCKASGYAFNNYLIEWIKQRPGQGLEWIGVINPGSGGTNHNEKFKVKATLTADKSSSTAYIQLSSLTSDDSAVYFCARSAGTARARFAYWGQGTLVTVSA
VL: DIQMTQSPSSLSASLGERVSLTCRASQDIGSSLNWLQQEPDGTIKRLIYATSSLDSGVPKRFSGSRSGSDYSLTISSLESEDFVDYYCLQYASFPFTFGSGTKLEIKR
notes: also called mAb4E5; ML37-4E5
Which results are given for B3?
binding result (RAGE-derived peptide 10): no binding; binding result (RAGE-derived peptide 3): no binding; binding result (RAGE-derived peptide 2): no binding; binding result (RAGE-derived peptide 6): no binding; binding result (RAGE-derived peptide 5): no binding; binding result [2]: no binding; binding result (RAGE-derived peptide 7): no binding; binding result (RAGE-derived peptide 8): no binding; binding result (RAGE-derived peptide 1): no binding; binding result (RAGE-derived peptide 4): no binding; binding result (RAGE-derived peptide 9): no binding; EC50 (read off the curve) [3]: ~500 pM
